Source: patent US20240270821A1, “GIP/GLP1/GCG TRI-RECEPTOR AGONISTS AND USES THEREOF” (priority 2023, published 2024)

T1: human GIP receptor (human) (UniProt P48546)
T1 sequence (looked up): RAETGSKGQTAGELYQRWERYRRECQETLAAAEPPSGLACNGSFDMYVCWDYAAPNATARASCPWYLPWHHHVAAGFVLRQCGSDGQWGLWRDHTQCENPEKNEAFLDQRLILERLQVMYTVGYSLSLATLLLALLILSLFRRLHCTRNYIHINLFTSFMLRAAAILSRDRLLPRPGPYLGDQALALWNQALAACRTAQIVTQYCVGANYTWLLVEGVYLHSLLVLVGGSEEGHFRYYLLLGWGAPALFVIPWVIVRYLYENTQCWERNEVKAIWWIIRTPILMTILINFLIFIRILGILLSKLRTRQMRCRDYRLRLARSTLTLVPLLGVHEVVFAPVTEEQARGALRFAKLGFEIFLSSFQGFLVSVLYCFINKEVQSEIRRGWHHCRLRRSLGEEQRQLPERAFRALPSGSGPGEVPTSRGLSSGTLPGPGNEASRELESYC


Experiments:
Experiment in all cases: cell-based or functional assay
hGLP-1R = hGLP-1R (Homo sapiens, UniProt P43220)
[1] = biological target: T1, human GIP receptor (human)
[2] = biological target: human glucagon receptor (human) (UniProt P47871)
Sequence of human glucagon receptor (human) (P47871 26-477): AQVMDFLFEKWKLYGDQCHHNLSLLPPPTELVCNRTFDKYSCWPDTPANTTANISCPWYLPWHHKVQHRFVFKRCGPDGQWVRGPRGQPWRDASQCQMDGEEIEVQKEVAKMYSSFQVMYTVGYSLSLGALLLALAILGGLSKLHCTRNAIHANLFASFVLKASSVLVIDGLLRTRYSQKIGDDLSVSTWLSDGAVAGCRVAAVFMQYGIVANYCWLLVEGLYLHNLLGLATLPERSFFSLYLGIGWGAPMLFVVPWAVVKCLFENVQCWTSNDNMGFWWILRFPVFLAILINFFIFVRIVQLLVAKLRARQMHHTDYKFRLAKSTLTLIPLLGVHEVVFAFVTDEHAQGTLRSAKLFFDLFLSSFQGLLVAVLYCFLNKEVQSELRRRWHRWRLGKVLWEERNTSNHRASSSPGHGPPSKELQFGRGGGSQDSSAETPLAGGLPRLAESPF

Sequence of hGLP-1R (P43220 24-463): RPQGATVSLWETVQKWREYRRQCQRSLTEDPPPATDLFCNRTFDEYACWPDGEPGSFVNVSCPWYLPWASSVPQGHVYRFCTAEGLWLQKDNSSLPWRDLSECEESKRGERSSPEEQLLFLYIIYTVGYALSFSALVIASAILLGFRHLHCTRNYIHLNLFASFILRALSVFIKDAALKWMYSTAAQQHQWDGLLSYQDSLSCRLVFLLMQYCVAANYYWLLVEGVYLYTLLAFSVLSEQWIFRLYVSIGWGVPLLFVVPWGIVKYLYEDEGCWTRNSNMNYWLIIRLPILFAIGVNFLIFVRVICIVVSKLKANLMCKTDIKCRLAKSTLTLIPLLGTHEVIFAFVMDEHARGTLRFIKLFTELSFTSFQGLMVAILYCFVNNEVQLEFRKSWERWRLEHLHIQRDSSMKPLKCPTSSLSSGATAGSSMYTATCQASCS

| Binder | Relative cAMP EC50 (hGLP-1R) | cAMP Rel EC50 (in the presence of 1% HSA) (hGLP-1R) | Relative cAMP EC50 [1] | cAMP Rel EC50 (in the presence of 1% HSA) [1] | Relative cAMP EC50 [2] | cAMP Rel EC50 (in the presence of 1% HSA) [2] | cAMP Rel EC50, nM (1% HSA) (hGLP-1R) | cAMP Rel EC50, nM (1% HSA) [1] | cAMP Rel EC50, nM (1% HSA) [2] |
| --- | --- | --- | --- | --- | --- | --- | --- | --- | --- |
| YXQGTFTSDFSXXLDKKAQXAFIEYLLEAGPSSGXPPPSGH (Aib, Orn, αMeL, D-Ala, 4Pal; acylated lysine; amide; synthetic construct; SITE 2: note = 2-Aminoisobutyric Acid; SITE 12: note = L-ornithine; SITE 13: note = alpha-methyl-leucine; SITE 17: note = Lysine is chemically modified through conjugation of the epsilon-amino group of the Lysine side chain with (2-[2-(2-Amino-ethoxy)-ethoxy]-acetyl)2-(gamma-Glu)) [Example 257] | 2.66 nM | 388 nM | 0.135 nM | 21 nM | 7.36 nM | 1210 nM |  |  |  |
| YXQGTFTSDFSXXLDKKAQXAFIEYLLEAGPSSGXPPPSGX (acylated lysine (AEEA)2-γGlu-C18 diacid; non-natural residues; C-terminal amide; synthetic construct; SITE 2: note = 2-Aminoisobutyric Acid; SITE 12: note = L-ornithine; SITE 13: note = alpha-methyl-leucine; SITE 17: note = Lysine is chemically modified through conjugation of the epsilon-amino group of the Lysine side chain with (2-[2-(2-Amino-ethoxy)-ethoxy]-acetyl)2-(gamma-Glu)) [Example 258] | 2.71 nM | 492 nM | 0.154 nM | 23.3 nM | 7.15 nM | 1280 nM |  |  |  |
| YXQGTFTSDFSXXLDKKAQXAFIEWLLEGGPSSGAPPPEGX (non-natural residues; acylated Lys; C-terminal amide; synthetic construct; SITE 2: note = 2-Aminoisobutyric Acid; SITE 12: note = L-ornithine; SITE 13: note = alpha-methyl-leucine; SITE 17: note = Lysine is chemically modified through conjugation of the epsilon-amino group of the Lysine side chain with (2-[2-(2-Amino-ethoxy)-ethoxy]-acetyl)-(gamma-Glu)) [Example 262] | 4.39 nM | 400 nM | 0.232 nM | 40.4 nM | 9.77 nM | 720 nM |  |  |  |
| YXQGTFTSDFSKXLDKKAQXAFIEYLIEGGESSGAPPPSGS (acylated; synthetic construct; SITE 2: note = 2-Aminoisobutyric Acid; SITE 13: note = alpha-methyl-leucine; SITE 17: note = Lysine is chemically modified through conjugation of the epsilon-amino group of the Lysine side chain with (2-[2-(2-Amino-ethoxy)-ethoxy]-acetyl)-(gamma-Glu)-CO-(CH2) 16-CO2H; SITE 20: n) [Example 215] | 0.803 nM |  | 0.418 nM |  | 9.77 nM |  | 162 nM | 87.3 nM | 1510 nM |
| YXQGTFTSDFSXXLDKKAQXAFIEYLLEGGPSSGAPPPSGT (Aib, Orn, αMeL; (γGlu)2-C18 diacid on Lys; C-terminal amide; synthetic construct; SITE 2: note = 2-Aminoisobutyric Acid; SITE 12: note = L-ornithine; SITE 13: note = alpha-methyl-leucine; SITE 17: note = Lysine is chemically modified through conjugation of the epsilon-amino group of the Lysine side chain with (gamma-Glu)2-CO-(CH2)16-CO2H; SITE 20: note = 2-Am) [Example 260] | 3.85 nM | 160 nM | 0.251 nM | 12.4 nM | 5.04 nM | 162 nM |  |  |  |
| YXQGTFTSDFSXXLDKKAQXAFIEYLIEXGESSGAPPPSGE (non-natural residues, acylated Lys, C-terminal amide; synthetic construct; SITE 2: note = 2-Aminoisobutyric Acid; SITE 12: note = L-ornithine; SITE 13: note = alpha-methyl-leucine; SITE 17: note = Lysine is chemically modified through conjugation of the epsilon-amino group of the Lysine side chain with (2-[2-(2-Amino-ethoxy)-ethoxy]-acetyl)-(gamma-Glu)) [Example 228] | 1.52 nM |  | 0.147 nM |  | 1.38 nM |  |  |  |  |
| YXQGTFTSDFSKXLDKKAQXAFIEYLIEXGESSGAPPPSGS (acylated; synthetic construct; SITE 2: note = 2-Aminoisobutyric Acid; SITE 13: note = alpha-methyl-leucine; SITE 17: note = Lysine is chemically modified through conjugation of the epsilon-amino group of the Lysine side chain with (2-[2-(2-Amino-ethoxy)-ethoxy]-acetyl)-(gamma-Glu)-CO-(CH2) 16-CO2H; SITE 20: n) [Example 216] | 0.52 nM |  | 0.0887 nM |  | 2.7 nM |  | 90.6 nM | 12 nM | 895 nM |
| YXQGTFTSDFSXXLDKKAQXAFIEYLLEXGHSSGAPPPSGS (Aib, Orn, αMeL; lipidated Lys; C-terminal amide; synthetic construct; SITE 2: note = 2-Aminoisobutyric Acid; SITE 12: note = L-ornithine; SITE 13: note = alpha-methyl-leucine; SITE 17: note = Lysine is chemically modified through conjugation of the epsilon-amino group of the Lysine side chain with (2-[2-(2-Amino-ethoxy)-ethoxy]-acetyl)-(gamma-Glu)) [Example 243] | 6.46 nM |  | 0.178 nM |  | 6.86 nM |  |  |  |  |
| YXQGTFTSDFSXXLDKKAQXAFIEYLIEXGESSGAPPPSGE (non-natural residues; lipidated Lys; C-terminal amide; synthetic construct; SITE 2: note = 2-Aminoisobutyric Acid; SITE 12: note = L-ornithine; SITE 13: note = alpha-methyl-leucine; SITE 17: note = Lysine is chemically modified through conjugation of the epsilon-amino group of the Lysine side chain with (2-[2-(2-Amino-ethoxy)-ethoxy]-acetyl)-(gamma-Glu)) [Example 219] | 0.835 nM |  | 0.119 nM |  | 7.77 nM |  |  |  |  |
| YXQGTFTSDFSXXLDKKAQXAFIEYLLEAGPSSGAPPPSGH (C-terminal amide; lysine acylated with AEEA-γ-Glu-C18 diacid; synthetic construct; SITE 2: note = 2-Aminoisobutyric Acid; SITE 12: note = L-ornithine; SITE 13: note = alpha-methyl-leucine; SITE 17: note = Lysine is chemically modified through conjugation of the epsilon-amino group of the Lysine side chain with (2-[2-(2-Amino-ethoxy)-ethoxy]-acetyl)-(gamma-Glu)) [Example 259] | 1.47 nM | 220 nM | 0.114 nM | 18.4 nM | 2.55 nM | 317 nM |  |  |  |
| YXQGTFTSDFSXXLDKKAQXAFIEYLLEGGPSSGAPPPGGX (C-terminal amide; lysine acylated with AEEA-γ-Glu-C18 diacid; synthetic construct; SITE 2: note = 2-Aminoisobutyric Acid; SITE 12: note = L-ornithine; SITE 13: note = alpha-methyl-leucine; SITE 17: note = Lysine is chemically modified through conjugation of the epsilon-amino group of the Lysine side chain with (2-[2-(2-Amino-ethoxy)-ethoxy]-acetyl)-(gamma-Glu)) [Example 261] | 3.12 nM | 383 nM | 0.29 nM | 38.4 nM | 5.49 nM | 520 nM |  |  |  |
| YXQGTFTSDFSXXLDKKAQXAFIEYLLEGGXSSGAPPPGGS (acylated; synthetic construct; SITE 2: note = 2-Aminoisobutyric Acid; SITE 12: note = L-ornithine; SITE 13: note = alpha-methyl-leucine; SITE 17: note = Lysine is chemically modified through conjugation of the epsilon-amino group of the Lysine side chain with (2-[2-(2-Amino-ethoxy)-ethoxy]-acetyl)-(gamma-Glu)) [Example 234] | 4.72 nM |  | 0.322 nM |  | 7.87 nM |  | 604 nM | 31.1 nM | 702 nM |
| YXQGTFTSDFSRXLDKKAQXAFIEYLIEGGESSGAPPPSGS (acylated; synthetic construct; SITE 2: note = 2-Aminoisobutyric Acid; SITE 13: note = alpha-methyl-leucine; SITE 17: note = Lysine is chemically modified through conjugation of the epsilon-amino group of the Lysine side chain with (2-[2-(2-Amino-ethoxy)-ethoxy]-acetyl)-(gamma-Glu)-CO-(CH2) 16-CO2H; SITE 20: n) [Example 220] | 1.01 nM |  | 0.411 nM |  | 11.2 nM |  | 189 nM | 87.1 nM | 1990 nM |
| YXQGTFTSDFSXXLDKKAQXAFIEYLIEXGESSGAPPPSGS (non-natural residues; lipidated Lys AEEA-γGlu-C18 diacid; C-term amide; synthetic construct; SITE 2: note = 2-Aminoisobutyric Acid; SITE 12: note = L-ornithine; SITE 13: note = alpha-methyl-leucine; SITE 17: note = Lysine is chemically modified through conjugation of the epsilon-amino group of the Lysine side chain with (2-[2-(2-Amino-ethoxy)-ethoxy]-acetyl)-(gamma-Glu)) [Example 229] | 1.58 nM |  | 0.179 nM |  | 2.3 nM |  |  |  |  |
| YXQGTFTSDFSRXLDKKAQXAFIEYLIEXGESSGAPPPSGS (C-terminal amide; lysine acylated with AEEA-γ-Glu-C18 diacid; synthetic construct; SITE 2: note = 2-Aminoisobutyric Acid; SITE 13: note = alpha-methyl-leucine; SITE 17: note = Lysine is chemically modified through conjugation of the epsilon-amino group of the Lysine side chain with (2-[2-(2-Amino-ethoxy)-ethoxy]-acetyl)-(gamma-Glu)-CO-(CH2) 16-CO2H; SITE 20: n) [Example 221] | 0.629 nM |  | 0.105 nM |  | 11.3 nM |  |  |  |  |
| YXQGTFTSDFSXXLDKKAQXAFIEYLLEGGPSSGAXPPGGS (acylated; synthetic construct; SITE 2: note = 2-Aminoisobutyric Acid; SITE 12: note = L-ornithine; SITE 13: note = alpha-methyl-leucine; SITE 17: note = Lysine is chemically modified through conjugation of the epsilon-amino group of the Lysine side chain with (2-[2-(2-Amino-ethoxy)-ethoxy]-acetyl)-(gamma-Glu)) [Example 235] | 3.55 nM |  | 0.388 nM |  | 4.35 nM |  | 457 nM | 40.8 nM | 700 nM |
| YXQGTFTSDFSXXLDKKAQXAFIEYLLEGGPSSGAPPXGGS (acylated; synthetic construct; SITE 2: note = 2-Aminoisobutyric Acid; SITE 12: note = L-ornithine; SITE 13: note = alpha-methyl-leucine; SITE 17: note = Lysine is chemically modified through conjugation of the epsilon-amino group of the Lysine side chain with (2-[2-(2-Amino-ethoxy)-ethoxy]-acetyl)-(gamma-Glu)) [Example 237] | 3.4 nM |  | 0.228 nM |  | 3.77 nM |  | 291 nM | 30.9 nM | 441 nM |
| YXQGTFTSDFSXXLDKKAQXAFIEYLLEXGESSGAPPPSGS (acylated; synthetic construct; SITE 2: note = 2-Aminoisobutyric Acid; SITE 12: note = L-ornithine; SITE 13: note = alpha-methyl-leucine; SITE 17: note = Lysine is chemically modified through conjugation of the epsilon-amino group of the Lysine side chain with (gamma-Glu)-(2-[2-(2-Amino-ethoxy)-ethoxy]-acetyl)) [Example 244] | 7.68 nM |  | 0.0972 nM |  | 4.81 nM |  | 645 nM | 18.8 nM | 1230 nM |
| YXQGTFTSDFSXXLDKKAQXAFIEYLLEXGHSSGAPPPSGS (acylated; synthetic construct; SITE 2: note = 2-Aminoisobutyric Acid; SITE 12: note = L-ornithine; SITE 13: note = alpha-methyl-leucine; SITE 17: note = Lysine is chemically modified through conjugation of the epsilon-amino group of the Lysine side chain with (gamma-Glu)-(2-[2-(2-Amino-ethoxy)-ethoxy]-acetyl)) [Example 245] | 5.99 nM |  | 0.0684 nM |  | 7.07 nM |  | 540 nM | 10.5 nM | 1120 nM |
| YXQGTFTSDFSXXLDKKAQXAFIEYLLEXGESSGAPPPSGS (acylated; synthetic construct; SITE 2: note = 2-Aminoisobutyric Acid; SITE 12: note = L-ornithine; SITE 13: note = alpha-methyl-leucine; SITE 17: note = Lysine is chemically modified through conjugation of the epsilon-amino group of the Lysine side chain with (2-[2-(2-Amino-ethoxy)-ethoxy]-acetyl)-(gamma-Glu)) [Example 240] | 3.62 nM |  | 0.214 nM |  | 2.02 nM |  | 396 nM | 10.4 nM | 521 nM |
| YXQGTFTSDFSXXLDKKAQXAFIEYLIEXGESSGAPPPSGS (acylated Lys, C-terminal amide, non-natural residues; synthetic construct; SITE 2: note = 2-Aminoisobutyric Acid; SITE 12: note = L-ornithine; SITE 13: note = alpha-methyl-leucine; SITE 17: note = Lysine is chemically modified through conjugation of the epsilon-amino group of the Lysine side chain with (2-[2-(2-Amino-ethoxy)-ethoxy]-acetyl)-(gamma-Glu)) [Example 218] | 0.76 nM |  | 0.0853 nM |  | 7.89 nM |  |  |  |  |
| YXQGTFTSDFSXXLDKKAQXAFIEYLLEGGPSSGAPXPGGS (acylated; synthetic construct; SITE 2: note = 2-Aminoisobutyric Acid; SITE 12: note = L-ornithine; SITE 13: note = alpha-methyl-leucine; SITE 17: note = Lysine is chemically modified through conjugation of the epsilon-amino group of the Lysine side chain with (2-[2-(2-Amino-ethoxy)-ethoxy]-acetyl)-(gamma-Glu)) [Example 236] | 3.33 nM |  | 0.309 nM |  | 2.23 nM |  | 261 nM | 24.8 nM | 309 nM |
